The source of these data is patent US20080131910A1 (LUDWIG INSTITUTE FOR CANCER RESEARCH, published 2008).

For test [1], the target named is T1, ALK-5 (activin receptor like kinase 5), human TGF-β type I receptor (human, UniProt P36897 25-503).
T1 construct: Expressed from cDNA in COS-1 cells and PAE cells (PAE/TβR-I), or endogenous in human cell lines (AG1518, A549, HSC-2, HUVEC); also called hALK-5; clone EMBLA
T1 sequence: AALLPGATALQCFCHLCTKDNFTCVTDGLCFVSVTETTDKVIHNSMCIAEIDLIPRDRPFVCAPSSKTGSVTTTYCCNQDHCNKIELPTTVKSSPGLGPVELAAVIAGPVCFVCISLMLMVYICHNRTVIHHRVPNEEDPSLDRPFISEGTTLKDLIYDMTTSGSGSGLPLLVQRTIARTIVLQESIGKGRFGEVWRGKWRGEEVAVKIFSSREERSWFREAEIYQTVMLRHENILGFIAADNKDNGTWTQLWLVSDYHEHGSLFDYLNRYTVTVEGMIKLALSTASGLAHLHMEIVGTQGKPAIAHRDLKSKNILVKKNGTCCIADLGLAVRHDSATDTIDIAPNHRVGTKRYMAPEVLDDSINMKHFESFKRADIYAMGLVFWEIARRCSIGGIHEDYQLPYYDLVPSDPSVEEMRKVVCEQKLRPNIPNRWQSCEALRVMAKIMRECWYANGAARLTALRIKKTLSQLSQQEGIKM
In words: affinity cross-linking followed by immunoprecipitation, COS-1 cells co-transfected with ActR-II and the ALK.

Test [2] concerns the target T2, ALK-6 (activin receptor like kinase 6), mouse (mouse, UniProt P36898 14-502).
T2 construct: Expressed from cDNA in COS-1 cells; also called mALK-6; clone ME-6
The test is described as above.

T2 sequence (P36898 14-502 limits assumed): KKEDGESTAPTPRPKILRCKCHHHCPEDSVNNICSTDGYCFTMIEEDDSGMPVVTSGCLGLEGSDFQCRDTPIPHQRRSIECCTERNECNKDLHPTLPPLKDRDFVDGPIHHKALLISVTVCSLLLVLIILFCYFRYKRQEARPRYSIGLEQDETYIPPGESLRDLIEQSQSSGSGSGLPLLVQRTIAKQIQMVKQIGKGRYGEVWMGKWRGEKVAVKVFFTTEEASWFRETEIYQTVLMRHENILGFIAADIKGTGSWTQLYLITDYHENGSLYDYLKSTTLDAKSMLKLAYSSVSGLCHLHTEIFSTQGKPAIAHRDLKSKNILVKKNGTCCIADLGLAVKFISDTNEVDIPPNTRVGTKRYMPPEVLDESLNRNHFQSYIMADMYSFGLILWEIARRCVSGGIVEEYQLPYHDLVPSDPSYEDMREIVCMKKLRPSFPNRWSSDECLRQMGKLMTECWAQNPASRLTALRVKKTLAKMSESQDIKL

B1: Recombinant human activin A (ligand, UniProt P08476 311-426, looked up)
chain: GLECDGKVNICCKKQFFVSFKDIGWNDWIIAPSGYHANYCEGECPSHIAGTSGSSLSFHSTVINHYRMRGHSPFANLKSCCVPTKLRPMSMLYYDDGQNIIKKDIQNMIVEECGCS
modifications: 125I-iodinated (chloramine T method)
As for B1, the binding result in test [1] and in test [2] was “binds” throughout.
